Data reported in article PMC4027167, “The histone chaperones Vps75 and Nap1 form ring-like, tetrameric structures in solution” (Nucleic Acids Research, 2014).

Columns and labels:
[1] = biological target: Nucleosome Assembly Protein 1 (Nap1) (budding yeast) (UniProt P25293); test: SEC-MALS; 500 mM NaCl, 20 mM HEPES-KOH pH 7.5; MAbPac SEC-1 column (Figure 1) or Superdex S200 10/300 (Figure 7)
[2] = biological target: Nucleosome Assembly Protein 1 (Nap1) (budding yeast) (UniProt P25293); test: SEC-MALS; 150 mM NaCl, 20 mM HEPES-KOH pH 7.5; MAbPac SEC-1 column (Figure 1) or Superdex S200 10/300 (Figures 5 and 7)
[3] = biological target: Nap1 L120C dimers labelled with Maleimide-PEG2-Biotin (budding yeast) (UniProt P25293); test: BLI; biotinylated chaperone dimers on streptavidin biosensors, unlabelled wild-type chaperone in solution; 150 mM NaCl, 20 mM HEPES.KOH pH 7.5, 0.1% BSA; steady state, one site saturation fit; two dimers to tetramer
[4] = biological target: Vps75, full-length (budding yeast) (UniProt P53853); test: SAXS; 500 mM NaCl, 0.5 to 10 mg/ml, 10°C
[5] = biological target: Vps75, full-length (budding yeast) (UniProt P53853); test: SAXS; 150 mM NaCl, 0.5 to 10 mg/ml, 10°C
[6] = biological target: Vps75, full-length (budding yeast) (UniProt P53853); test: SEC-MALS; 500 mM NaCl, 20 mM HEPES-KOH pH 7.5; MAbPac SEC-1 column (Figure 1) or Superdex S200 10/300 (Figure 7)
[7] = biological target: Vps75, full-length (budding yeast) (UniProt P53853); test: SEC-MALS; 150 mM NaCl, 20 mM HEPES-KOH pH 7.5; MAbPac SEC-1 column (Figure 1) or Superdex S200 10/300 (Figures 5 and 7)
[8] = biological target: Vps75 Y35C dimers labelled with Maleimide-PEG2-Biotin (budding yeast) (UniProt P53853); test: BLI; biotinylated chaperone dimers on streptavidin biosensors, unlabelled wild-type chaperone in solution; 150 mM NaCl, 20 mM HEPES.KOH pH 7.5, 0.1% BSA; steady state, one site saturation fit; two dimers to tetramer
[9] = biological target: Vps75 lacking the unstructured C-terminal domain (residues 1–223) (budding yeast) (UniProt P53853); test: SAXS; 500 mM NaCl, 0.5 to 10 mg/ml, 10°C
[10] = biological target: Vps75 lacking the unstructured C-terminal domain (residues 1–223) (budding yeast) (UniProt P53853); test: SEC-MALS; 500 mM NaCl, 20 mM HEPES-KOH pH 7.5; MAbPac SEC-1 column (Figure 1) or Superdex S200 10/300 (Figure 7)
[11] = biological target: Vps75 lacking the unstructured C-terminal domain (residues 1–223) (budding yeast) (UniProt P53853); test: SEC-MALS; 150 mM NaCl, 20 mM HEPES-KOH pH 7.5; MAbPac SEC-1 column (Figure 1) or Superdex S200 10/300 (Figures 5 and 7)
[12] = biological target: the molecule itself; test: as above
[13] = biological target: the molecule itself; test: PELDOR; spin-labelled protein, 100–150 μM dimer, 500 mM NaCl, 20 mM HEPES-KOH pH 7.5 in deuterium oxide, mixed 1:1 with D8-glycerol; dimeric conditions
[14] = biological target: the molecule itself; test: PELDOR; spin-labelled protein, 100–150 μM dimer, 150 mM NaCl, 20 mM HEPES-KOH pH 7.5 in deuterium oxide, mixed 1:1 with D8-glycerol; tetrameric conditions

Question: Which results are given for “Nucleosome Assembly Protein 1 (Nap1) (from UniProt P25293 1-417) (natural protein)”?
Answer: stoichiometry N [1]: 2; stoichiometry N [2]: 4; Kd [3]: 3.57 µM

Question: For “Vps75, full-length (from UniProt P53853 1-264) (natural protein)”, which stoichiometry N [4] is on record?
Answer: 2

Question: And the stoichiometry N [5]?
Answer: 4

Question: What about the stoichiometry N [6] of the same molecule?
Answer: 2

Question: What about the stoichiometry N [7] of the same molecule?
Answer: 4

Question: And the Kd [8]?
Answer: 0.6 µM

Question: Which results are given for “Vps75 lacking the unstructured C-terminal domain (residues 1–223) (from UniProt P53853 1-223) (domain or fragment)”?
Answer: stoichiometry N [9]: 2; stoichiometry N [10]: 2; stoichiometry N [11]: 4

B1: Nap1 PPP mutant (R301P, T302P, K305P) (natural protein)
chain: MSDPIRTKPKSSMQIDNAPTPHNTPASVLNPSYLKNGNPVRAQAQEQDDKIGTINEEDILANQPLLLQSIQDRLGSLVGQDSGYVGGLPKNVKEKLLSLKTLQSELFEVEKEFQVEMFELENKFLQKYKPIWEQRSRIISGQEQPKPEQIAKGQEIVESLNETELLVDEEEKAQNDSEEEQVKGIPSFWLTALENLPIVADTITDRDAEVLEYLQDIGLEYLTDGRPGFKLLFRFDSSANPFFTNDILAKTYFYQKELGYSGDFIYDHAEGAEISWKDNAHNVTVDLEMRKQRNKTTKQVPPIEPITPIESFFNFFDPPKIQNEDQDEELEEDLEERLALDYSIGEQLKDKLIPRAVDWFTGAALEFEFEEDEEEADEDEDEEEDDDHGLEDDDGESAEEQDDFAGRPEQAPEAKQS
Question: How did the “stoichiometry N” value [12] turn out when B1 was run?
Answer: ~2

B2: Nap1 E209R1 (natural protein, budding yeast, UniProt P25293 1-417, looked up)
chain: MSDPIRTKPKSSMQIDNAPTPHNTPASVLNPSYLKNGNPVRAQAQEQDDKIGTINEEDILANQPLLLQSIQDRLGSLVGQDSGYVGGLPKNVKEKLLSLKTLQSELFEVEKEFQVEMFELENKFLQKYKPIWEQRSRIISGQEQPKPEQIAKGQEIVESLNETELLVDEEEKAQNDSEEEQVKGIPSFWLTALENLPIVADTITDRDACVLEYLQDIGLEYLTDGRPGFKLLFRFDSSANPFFTNDILAKTYFYQKELGYSGDFIYDHAEGAEISWKDNAHNVTVDLEMRKQRNKTTKQVRTIEKITPIESFFNFFDPPKIQNEDQDEELEEDLEERLALDYSIGEQLKDKLIPRAVDWFTGAALEFEFEEDEEEADEDEDEEEDDDHGLEDDDGESAEEQDDFAGRPEQAPEAKQS
modifications: MTSL spin label (R1) on cysteine 209; deuterated protein
notes: Nap1 of budding yeast, open reading frame, unique cysteine at position 209; also called Nap1 E209C; not shown: His6, N-terminal, cleaved
Question: Which “stoichiometry N” value [13] does the source give for B2 here?
Answer: 2

Question: What about the “stoichiometry N” value [14] of the same molecule?
Answer: 4

B3: Nap1 T251R1 (natural protein, budding yeast, UniProt P25293 1-417, looked up)
chain: MSDPIRTKPKSSMQIDNAPTPHNTPASVLNPSYLKNGNPVRAQAQEQDDKIGTINEEDILANQPLLLQSIQDRLGSLVGQDSGYVGGLPKNVKEKLLSLKTLQSELFEVEKEFQVEMFELENKFLQKYKPIWEQRSRIISGQEQPKPEQIAKGQEIVESLNETELLVDEEEKAQNDSEEEQVKGIPSFWLTALENLPIVADTITDRDAEVLEYLQDIGLEYLTDGRPGFKLLFRFDSSANPFFTNDILAKCYFYQKELGYSGDFIYDHAEGAEISWKDNAHNVTVDLEMRKQRNKTTKQVRTIEKITPIESFFNFFDPPKIQNEDQDEELEEDLEERLALDYSIGEQLKDKLIPRAVDWFTGAALEFEFEEDEEEADEDEDEEEDDDHGLEDDDGESAEEQDDFAGRPEQAPEAKQS
modifications: MTSL spin label (R1) on cysteine 251; deuterated protein
notes: Nap1 of budding yeast, open reading frame, unique cysteine at position 251; also called Nap1 T251C; not shown: His6, N-terminal, cleaved
Question: With B3 as the molecule, how does the “stoichiometry N” value [13] read?
Answer: 2

Question: And the “stoichiometry N” value [14]?
Answer: 4

B4: Nap1 T307R1 (natural protein, budding yeast, UniProt P25293 1-417, looked up)
chain: MSDPIRTKPKSSMQIDNAPTPHNTPASVLNPSYLKNGNPVRAQAQEQDDKIGTINEEDILANQPLLLQSIQDRLGSLVGQDSGYVGGLPKNVKEKLLSLKTLQSELFEVEKEFQVEMFELENKFLQKYKPIWEQRSRIISGQEQPKPEQIAKGQEIVESLNETELLVDEEEKAQNDSEEEQVKGIPSFWLTALENLPIVADTITDRDAEVLEYLQDIGLEYLTDGRPGFKLLFRFDSSANPFFTNDILAKTYFYQKELGYSGDFIYDHAEGAEISWKDNAHNVTVDLEMRKQRNKTTKQVRTIEKICPIESFFNFFDPPKIQNEDQDEELEEDLEERLALDYSIGEQLKDKLIPRAVDWFTGAALEFEFEEDEEEADEDEDEEEDDDHGLEDDDGESAEEQDDFAGRPEQAPEAKQS
modifications: MTSL spin label (R1) on cysteine 307; deuterated protein
notes: Nap1 of budding yeast, open reading frame, unique cysteine at position 307; also called Nap1 T307C; not shown: His6, N-terminal, cleaved
Question: Which “stoichiometry N” value [13] does the source give for B4 here?
Answer: 2

Question: And the “stoichiometry N” value [14]?
Answer: 4

B5: Vps75 K117R1 (natural protein, budding yeast, UniProt P53853 1-264, looked up)
chain: MMSDQENENEHAKAFLGLAKAEEEVDAIEREVELYRLNKMKPVYEKRDAYIDEIAEFWKIVLSQHVSFANYIRASDFKYIDTIDKIKVEWLALESEMYDTRDFSITFHFHGIEGDFCEQQVTKVFQIKKGKDDQEDGILTSEPVPIEWPQSYDSINPDLIKDKRSPEGKKKYRQGMKTIFGWFRWTGLKPGKEFPHGDSLASLFSEEIYPFAVKYYAEAQRDLEDEEGESGLSADGDSEDDDGSLGEVDLPLSDEEPSSKKRKV
modifications: MTSL spin label (R1) on cysteine 117; deuterated protein
notes: Vps75 of budding yeast, open reading frame, unique cysteine at position 117; also called Vps75 K117C; not shown: His6, N-terminal, cleaved
Question: With B5 as the molecule, how does the “stoichiometry N” value [14] read?
Answer: 4

B6: Vps75 triple mutant protein (R164D, K169E, K170E) (natural protein, budding yeast, UniProt P53853 1-264, looked up)
chain: MMSDQENENEHAKAFLGLAKAEEEVDAIEREVELYRLNKMKPVYEKRDAYIDEIAEFWKIVLSQHVSFANYIRASDFKYIDTIDKIKVEWLALESEMYDTRDFSITFHFHGIEGDFKEQQVTKVFQIKKGKDDQEDGILTSEPVPIEWPQSYDSINPDLIKDKDSPEGEEKYRQGMKTIFGWFRWTGLKPGKEFPHGDSLASLFSEEIYPFAVKYYAEAQRDLEDEEGESGLSADGDSEDDDGSLGEVDLPLSDEEPSSKKRKV
notes: Vps75 of budding yeast, mutant in the C21A/C212A construct
Question: B6 was tested. Which “stoichiometry N” value [12] did it give?
Answer: 2

B7: Vps75 R164D (natural protein, budding yeast, UniProt P53853 1-264, looked up)
chain: MMSDQENENEHAKAFLGLAKAEEEVDAIEREVELYRLNKMKPVYEKRDAYIDEIAEFWKIVLSQHVSFANYIRASDFKYIDTIDKIKVEWLALESEMYDTRDFSITFHFHGIEGDFKEQQVTKVFQIKKGKDDQEDGILTSEPVPIEWPQSYDSINPDLIKDKDSPEGKKKYRQGMKTIFGWFRWTGLKPGKEFPHGDSLASLFSEEIYPFAVKYYAEAQRDLEDEEGESGLSADGDSEDDDGSLGEVDLPLSDEEPSSKKRKV
notes: Vps75 of budding yeast, point mutant in the C21A/C212A construct
Question: B7 was tested. Which “stoichiometry N” value [12] did it give?
Answer: ~2

B8: Vps75 K169E (natural protein, budding yeast, UniProt P53853 1-264, looked up)
chain: MMSDQENENEHAKAFLGLAKAEEEVDAIEREVELYRLNKMKPVYEKRDAYIDEIAEFWKIVLSQHVSFANYIRASDFKYIDTIDKIKVEWLALESEMYDTRDFSITFHFHGIEGDFKEQQVTKVFQIKKGKDDQEDGILTSEPVPIEWPQSYDSINPDLIKDKRSPEGEKKYRQGMKTIFGWFRWTGLKPGKEFPHGDSLASLFSEEIYPFAVKYYAEAQRDLEDEEGESGLSADGDSEDDDGSLGEVDLPLSDEEPSSKKRKV
notes: as for B7
Question: For B8, which “stoichiometry N” value [12] is on record?
Answer: ~2

B9: Vps75 E56R1 (natural protein, budding yeast, UniProt P53853 1-264, looked up)
chain: MMSDQENENEHAKAFLGLAKAEEEVDAIEREVELYRLNKMKPVYEKRDAYIDEIACFWKIVLSQHVSFANYIRASDFKYIDTIDKIKVEWLALESEMYDTRDFSITFHFHGIEGDFKEQQVTKVFQIKKGKDDQEDGILTSEPVPIEWPQSYDSINPDLIKDKRSPEGKKKYRQGMKTIFGWFRWTGLKPGKEFPHGDSLASLFSEEIYPFAVKYYAEAQRDLEDEEGESGLSADGDSEDDDGSLGEVDLPLSDEEPSSKKRKV
modifications: MTSL spin label (R1) on cysteine 56; deuterated protein
notes: Vps75 of budding yeast, open reading frame, unique cysteine at position 56; also called Vps75 E56C; not shown: His6, N-terminal, cleaved
Question: How did the “stoichiometry N” value [14] turn out when B9 was run?
Answer: 4

B10: Vps75 K170E (natural protein, budding yeast, UniProt P53853 1-264, looked up)
chain: MMSDQENENEHAKAFLGLAKAEEEVDAIEREVELYRLNKMKPVYEKRDAYIDEIAEFWKIVLSQHVSFANYIRASDFKYIDTIDKIKVEWLALESEMYDTRDFSITFHFHGIEGDFKEQQVTKVFQIKKGKDDQEDGILTSEPVPIEWPQSYDSINPDLIKDKRSPEGKEKYRQGMKTIFGWFRWTGLKPGKEFPHGDSLASLFSEEIYPFAVKYYAEAQRDLEDEEGESGLSADGDSEDDDGSLGEVDLPLSDEEPSSKKRKV
notes: as for B7
Question: How did the “stoichiometry N” value [12] turn out when B10 was run?
Answer: ~2
